PMC9482650, “Quantitative fragmentomics allow affinity mapping of interactomes” (Nature Communications, 2022)

T1: APBA3_1, O96018
T1 sequence (O96018 389-490, limits assumed, looked up): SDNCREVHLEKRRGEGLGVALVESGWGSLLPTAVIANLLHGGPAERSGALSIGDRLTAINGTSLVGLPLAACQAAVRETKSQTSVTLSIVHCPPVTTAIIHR

T2: DFNB31_1, Q9P202
T2 sequence (Q9P202 135-233, limits assumed, looked up): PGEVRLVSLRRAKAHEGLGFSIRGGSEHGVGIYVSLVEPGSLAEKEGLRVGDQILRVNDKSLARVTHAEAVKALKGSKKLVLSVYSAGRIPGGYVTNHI

T3: DFNB31_3, Q9P202
T3 sequence (Q9P202 811-907, limits assumed, looked up): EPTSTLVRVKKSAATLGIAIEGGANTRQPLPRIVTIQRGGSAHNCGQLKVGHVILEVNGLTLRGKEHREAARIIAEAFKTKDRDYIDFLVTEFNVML

T4: DLG3_3, Q92796
T4 sequence (Q92796 374-475, limits assumed, looked up): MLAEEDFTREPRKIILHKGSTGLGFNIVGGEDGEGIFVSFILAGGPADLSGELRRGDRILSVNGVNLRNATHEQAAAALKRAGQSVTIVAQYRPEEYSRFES

T5: LNX2_2, Q8N448
T5 sequence (Q8N448 334-432, limits assumed, looked up): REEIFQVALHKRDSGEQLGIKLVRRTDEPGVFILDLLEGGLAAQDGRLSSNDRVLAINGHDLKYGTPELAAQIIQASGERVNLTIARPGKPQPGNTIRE

T6: MPDZ_12, O75970
T6 sequence (O75970 1857-1958, limits assumed, looked up): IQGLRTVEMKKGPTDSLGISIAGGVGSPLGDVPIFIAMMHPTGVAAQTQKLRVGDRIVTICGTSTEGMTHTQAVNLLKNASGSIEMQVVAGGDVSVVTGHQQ

T7: MPP2, Q14168
T7 sequence (Q14168 180-250, limits assumed, looked up): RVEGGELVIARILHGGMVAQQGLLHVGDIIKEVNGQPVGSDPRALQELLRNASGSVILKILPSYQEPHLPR

T8: PDZD7_3, Q9H5P4
T8 sequence (Q9H5P4 857-944, limits assumed, looked up): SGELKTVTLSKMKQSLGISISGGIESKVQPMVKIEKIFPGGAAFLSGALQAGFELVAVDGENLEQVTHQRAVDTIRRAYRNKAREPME

T9: SHANK1, Q9Y566
T9 sequence (Q9Y566 658-767, limits assumed, looked up): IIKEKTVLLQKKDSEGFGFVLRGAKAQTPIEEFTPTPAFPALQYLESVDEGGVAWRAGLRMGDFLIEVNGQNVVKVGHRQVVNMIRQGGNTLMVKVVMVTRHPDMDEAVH

T10: MPP6, Q9NZW5
T10 sequence (Q9NZW5 125-219, limits assumed, looked up): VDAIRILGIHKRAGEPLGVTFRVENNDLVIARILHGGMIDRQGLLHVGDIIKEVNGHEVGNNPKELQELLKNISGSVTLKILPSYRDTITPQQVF


Key:
Experiment in all cases: holdup assay
Design in all cases: key: below the threshold = too weak to quantify, mostly under pKd 3.1 to 4
Settings in all cases: plain residues with an end cap or a label only (N-terminal biotin on a linker: ado-ado)
APBA3_1, O96018 = target: T1, APBA3_1, O96018
CASK, O14936 = target: CASK, O14936
DFNB31_1, Q9P202 = target: T2, DFNB31_1, Q9P202
DFNB31_3, Q9P202 = target: T3, DFNB31_3, Q9P202
DLG3_3, Q92796 = target: T4, DLG3_3, Q92796
DLG4_1, P78352 = target: DLG4_1, P78352
DLG4_2, P78352 = target: DLG4_2, P78352
FRMPD3, Q5JV73 = target: FRMPD3, Q5JV73
GRIP2_3, Q9C0E4 = target: GRIP2_3, Q9C0E4
GRIP2_4, Q9C0E4 = target: GRIP2_4, Q9C0E4
GRIP2_5, Q9C0E4 = target: GRIP2_5, Q9C0E4
GRIP2_6, Q9C0E4 = target: GRIP2_6, Q9C0E4
IL16_3, Q14005 = target: IL16_3, Q14005
Inadl_1, Q8NI35 = target: Inadl_1, Q8NI35
Inadl_8, Q8NI35 = target: Inadl_8, Q8NI35
LDB3, O75112 = target: LDB3, O75112
LIMK2, P53671 = target: LIMK2, P53671
LNX2_2, Q8N448 = target: T5, LNX2_2, Q8N448
MAGI2_4, Q86UL8 = target: MAGI2_4, Q86UL8
MAGI2_6, Q86UL8 = target: MAGI2_6, Q86UL8
MAGI3_2, Q5TCQ9 = target: MAGI3_2, Q5TCQ9
MPDZ_12, O75970 = target: T6, MPDZ_12, O75970
MPP2, Q14168 = target: T7, MPP2, Q14168
PDZD7_3, Q9H5P4 = target: T8, PDZD7_3, Q9H5P4
PTPN3, P26045 = target: PTPN3, P26045
SCRIB_3, Q14160 = target: SCRIB_3, Q14160
SHANK1, Q9Y566 = target: T9, SHANK1, Q9Y566
TJP1_3, Q07157 = target: TJP1_3, Q07157
MPP6, Q9NZW5 = target: T10, MPP6, Q9NZW5

LIMK2, P53671, sequence (P53671 143-248): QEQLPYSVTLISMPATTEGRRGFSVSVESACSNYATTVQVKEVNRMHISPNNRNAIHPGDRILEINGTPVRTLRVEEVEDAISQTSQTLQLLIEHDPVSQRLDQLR
GRIP2_3, Q9C0E4, sequence (Q9C0E4 238-339): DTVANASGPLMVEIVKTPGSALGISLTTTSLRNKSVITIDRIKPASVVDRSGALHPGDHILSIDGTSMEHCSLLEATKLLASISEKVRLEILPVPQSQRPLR
MAGI2_6, Q86UL8, sequence (Q86UL8 1141-1229): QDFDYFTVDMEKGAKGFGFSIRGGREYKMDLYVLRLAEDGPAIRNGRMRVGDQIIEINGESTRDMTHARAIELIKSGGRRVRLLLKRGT
DLG4_1, P78352, sequence (P78352 62-152): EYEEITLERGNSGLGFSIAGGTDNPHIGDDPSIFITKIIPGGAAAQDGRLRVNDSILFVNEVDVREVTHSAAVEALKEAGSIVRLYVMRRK
Inadl_1, Q8NI35, sequence (Q8NI35 113-229): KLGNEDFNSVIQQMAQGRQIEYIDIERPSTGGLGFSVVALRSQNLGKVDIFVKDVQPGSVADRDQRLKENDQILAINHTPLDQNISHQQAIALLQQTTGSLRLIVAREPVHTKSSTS
IL16_3, Q14005, sequence (Q14005 1107-1207): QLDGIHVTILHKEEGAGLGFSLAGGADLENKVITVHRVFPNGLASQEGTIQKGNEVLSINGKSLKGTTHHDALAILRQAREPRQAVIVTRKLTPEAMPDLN
DLG4_2, P78352, sequence (P78352 155-259): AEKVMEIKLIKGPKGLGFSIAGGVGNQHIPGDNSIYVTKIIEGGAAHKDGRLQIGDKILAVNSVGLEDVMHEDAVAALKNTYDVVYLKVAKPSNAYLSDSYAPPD
GRIP2_4, Q9C0E4, sequence (Q9C0E4 446-548): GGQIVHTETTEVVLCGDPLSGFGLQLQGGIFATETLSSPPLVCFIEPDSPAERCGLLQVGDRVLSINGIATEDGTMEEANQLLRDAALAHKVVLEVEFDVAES
GRIP2_5, Q9C0E4, sequence (Q9C0E4 544-642): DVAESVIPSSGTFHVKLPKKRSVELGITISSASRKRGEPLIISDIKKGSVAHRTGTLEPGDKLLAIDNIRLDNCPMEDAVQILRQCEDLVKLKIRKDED
Inadl_8, Q8NI35, sequence (Q8NI35 1425-1530): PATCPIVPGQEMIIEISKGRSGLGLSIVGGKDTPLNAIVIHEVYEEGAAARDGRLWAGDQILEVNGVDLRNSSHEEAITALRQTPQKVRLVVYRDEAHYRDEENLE
TJP1_3, Q07157, sequence (Q07157 416-512): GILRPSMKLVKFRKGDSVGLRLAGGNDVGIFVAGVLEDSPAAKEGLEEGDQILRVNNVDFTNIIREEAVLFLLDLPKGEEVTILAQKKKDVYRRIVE
LDB3, O75112, sequence (O75112 1-94): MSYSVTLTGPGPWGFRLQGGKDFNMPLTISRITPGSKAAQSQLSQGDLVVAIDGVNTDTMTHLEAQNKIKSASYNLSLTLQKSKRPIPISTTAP
GRIP2_6, Q9C0E4, sequence (Q9C0E4 648-740): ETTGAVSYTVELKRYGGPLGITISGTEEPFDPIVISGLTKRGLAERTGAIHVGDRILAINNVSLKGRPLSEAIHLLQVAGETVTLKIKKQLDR
MAGI3_2, Q5TCQ9, sequence (Q5TCQ9 398-503): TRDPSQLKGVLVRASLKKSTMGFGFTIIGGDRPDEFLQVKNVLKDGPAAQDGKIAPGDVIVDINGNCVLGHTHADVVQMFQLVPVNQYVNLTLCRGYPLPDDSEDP
PTPN3, P26045, sequence (P26045 505-587): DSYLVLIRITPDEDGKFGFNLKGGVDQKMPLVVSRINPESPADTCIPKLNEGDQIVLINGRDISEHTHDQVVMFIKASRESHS
CASK, O14936, sequence (O14936 487-570): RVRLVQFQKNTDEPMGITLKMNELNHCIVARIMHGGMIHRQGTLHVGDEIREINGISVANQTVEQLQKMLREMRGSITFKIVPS
FRMPD3, Q5JV73, sequence (Q5JV73 12-100): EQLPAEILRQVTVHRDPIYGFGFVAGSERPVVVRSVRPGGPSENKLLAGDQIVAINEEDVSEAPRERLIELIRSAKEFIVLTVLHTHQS
SCRIB_3, Q14160, sequence (Q14160 999-1103): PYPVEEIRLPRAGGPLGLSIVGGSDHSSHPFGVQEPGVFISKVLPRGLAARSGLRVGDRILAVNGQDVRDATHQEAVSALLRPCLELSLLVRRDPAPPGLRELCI
MAGI2_4, Q86UL8, sequence (Q86UL8 772-865): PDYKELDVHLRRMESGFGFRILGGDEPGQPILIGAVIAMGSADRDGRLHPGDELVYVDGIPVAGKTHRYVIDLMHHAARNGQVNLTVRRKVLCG

Binder	pKd (APBA3_1, O96018)	pKd (CASK, O14936)	pKd (DFNB31_1, Q9P202)	pKd (DFNB31_3, Q9P202)	pKd (DLG3_3, Q92796)	pKd (DLG4_1, P78352)	pKd (DLG4_2, P78352)	pKd (FRMPD3, Q5JV73)	pKd (GRIP2_3, Q9C0E4)	pKd (GRIP2_4, Q9C0E4)	pKd (GRIP2_5, Q9C0E4)	pKd (GRIP2_6, Q9C0E4)	pKd (IL16_3, Q14005)	pKd (Inadl_1, Q8NI35)	pKd (Inadl_8, Q8NI35)	pKd (LDB3, O75112)	pKd (LIMK2, P53671)	pKd (LNX2_2, Q8N448)	pKd (MAGI2_6, Q86UL8)	pKd (MAGI3_2, Q5TCQ9)	also measured
VKQYADVEGF [HNRNPK, P61978;P61978-2]	below the threshold	below the threshold	below the threshold	3.98	below the threshold	below the threshold	below the threshold	below the threshold	below the threshold	below the threshold	below the threshold	below the threshold	below the threshold	below the threshold	below the threshold	below the threshold	below the threshold	below the threshold	below the threshold	below the threshold	pKd (MAGI2_4, Q86UL8): below the threshold; pKd (MPDZ_12, O75970): below the threshold; pKd (MPP2, Q14168): below the threshold; pKd (PDZD7_3, Q9H5P4): below the threshold; pKd (PTPN3, P26045): 3.93; pKd (SCRIB_3, Q14160): below the threshold; pKd (SHANK1, Q9Y566): below the threshold; pKd (TJP1_3, Q07157): below the threshold
PAALPESTHM [SLC9A3, P48764]	below the threshold	below the threshold	below the threshold	below the threshold	below the threshold	below the threshold	below the threshold	below the threshold	below the threshold	below the threshold	below the threshold	below the threshold	below the threshold	below the threshold	below the threshold	below the threshold	below the threshold	below the threshold	below the threshold	below the threshold	pKd (MAGI2_4, Q86UL8): below the threshold; pKd (MPDZ_12, O75970): below the threshold; pKd (MPP2, Q14168): below the threshold; pKd (MPP6, Q9NZW5): below the threshold; pKd (PDZD7_3, Q9H5P4): below the threshold; pKd (PTPN3, P26045): below the threshold; pKd (SCRIB_3, Q14160): 3.55; pKd (SHANK1, Q9Y566): 4.78; pKd (TJP1_3, Q07157): below the threshold
NTALVESEDL [PALLS, Q8WX93;Q8WX93-1]	below the threshold	below the threshold	below the threshold	below the threshold	below the threshold	below the threshold	below the threshold	below the threshold	below the threshold	below the threshold	below the threshold	below the threshold	below the threshold	below the threshold	below the threshold	5.16	below the threshold	below the threshold	4.01	below the threshold	pKd (MPDZ_12, O75970): below the threshold; pKd (MPP2, Q14168): below the threshold; pKd (MPP6, Q9NZW5): below the threshold; pKd (PDZD7_3, Q9H5P4): below the threshold; pKd (PTPN3, P26045): 4.33; pKd (SHANK1, Q9Y566): below the threshold; pKd (TJP1_3, Q07157): below the threshold
